We go through 14 molecules from patent US20250277020A1 (Boehringer Ingelheim, published 2025).

What is called Kd is the free concentration of one partner at which half of the binding sites on the other are occupied at equilibrium, for simple one-to-one binding. A high value points to weaker binding.

The target of this experiment is T1, Full-length human CTGF (human, UniProt P29279 27-349).
T1 construct: Corresponds to NCBI NP_001892.1 with the signal peptide omitted; purchased from R&D Systems; also called hCTGF full length; full length CTGF
T1 sequence: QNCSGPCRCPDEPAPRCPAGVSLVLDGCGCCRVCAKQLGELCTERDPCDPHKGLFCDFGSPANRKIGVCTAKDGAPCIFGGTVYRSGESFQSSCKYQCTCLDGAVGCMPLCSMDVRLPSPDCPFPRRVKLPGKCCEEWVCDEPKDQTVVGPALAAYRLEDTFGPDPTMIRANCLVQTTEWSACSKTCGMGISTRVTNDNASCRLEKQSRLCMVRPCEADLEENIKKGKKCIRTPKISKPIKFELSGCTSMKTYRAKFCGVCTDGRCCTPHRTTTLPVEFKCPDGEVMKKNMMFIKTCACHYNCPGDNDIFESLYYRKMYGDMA
Kind of experiment: SPR, full length CTGF. Background: In SPR one partner is held on a chip, and binding of the other changes the refractive index at the surface.

B1: A13 (antibody, human IgG1, kappa, L234A L235A)
light: VVMTQTPLSLSVSLGDQASISCKSSQSIVHYNEKTYLEWYLQKPGQSPQLLIYKVSSRASGVPDRFSGSGSGTDFTLKISRVEAEDLGVYYCFQGSHFPLTFGQGTKLEIKRTVAAPSVFIFPPSDEQLKSGTASVVCLLNNFYPREAKVQWKVDNALQSGNSQESVTEQDSKDSTYSLSSTLTLSKADYEKHKVYACEVTHQGLSSPVTKSFNRGEC
heavy: not shown
notes: also called antibody A13
B1 had a Kd of 0.25 nM.

B2: A108 (antibody, human IgG1, kappa, L234A L235A)
light: DIVMTQTPLSLSVSLGDQASISCKSSQSIVHYNGNTYLEWYLQKPGQSPQLLIYKVSSRASGVPDRFSGSGSGTDFTLKISRVEAEDLGVYYCFQGSHFPLTFGQGTKLEIKRTVAAPSVFIFPPSDEQLKSGTASVVCLLNNFYPREAKVQWKVDNALQSGNSQESVTEQDSKDSTYSLSSTLTLSKADYEKHKVYACEVTHQGLSSPVTKSFNRGEC
heavy: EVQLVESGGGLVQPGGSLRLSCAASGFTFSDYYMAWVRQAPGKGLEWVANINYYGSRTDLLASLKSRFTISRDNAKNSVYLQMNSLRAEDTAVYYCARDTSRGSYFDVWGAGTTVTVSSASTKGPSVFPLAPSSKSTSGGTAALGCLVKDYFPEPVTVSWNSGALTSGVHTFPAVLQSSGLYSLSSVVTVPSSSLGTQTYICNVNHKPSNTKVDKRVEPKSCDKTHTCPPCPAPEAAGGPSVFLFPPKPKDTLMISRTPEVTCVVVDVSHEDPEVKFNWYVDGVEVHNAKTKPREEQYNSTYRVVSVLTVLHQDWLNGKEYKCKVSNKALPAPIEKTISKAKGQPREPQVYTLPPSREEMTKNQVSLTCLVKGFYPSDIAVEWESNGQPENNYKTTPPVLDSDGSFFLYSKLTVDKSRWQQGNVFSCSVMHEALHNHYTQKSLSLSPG
Molecule B2 had a Kd of 0.42 nM.

B3: A118 (antibody, human IgG1, kappa, L234A L235A)
light: DIVMTQTPLSLSVSLGDQASISCKSSQSIVHYNEKTYLEWYLQKPGQSPQLLIYKVSSRASGVPDRFSGSGSGTDFTLKISRVEAEDLGVYYCFQGSHFPLTFGQGTKLEIKRTVAAPSVFIFPPSDEQLKSGTASVVCLLNNFYPREAKVQWKVDNALQSGNSQESVTEQDSKDSTYSLSSTLTLSKADYEKHKVYACEVTHQGLSSPVTKSFNRGEC
heavy: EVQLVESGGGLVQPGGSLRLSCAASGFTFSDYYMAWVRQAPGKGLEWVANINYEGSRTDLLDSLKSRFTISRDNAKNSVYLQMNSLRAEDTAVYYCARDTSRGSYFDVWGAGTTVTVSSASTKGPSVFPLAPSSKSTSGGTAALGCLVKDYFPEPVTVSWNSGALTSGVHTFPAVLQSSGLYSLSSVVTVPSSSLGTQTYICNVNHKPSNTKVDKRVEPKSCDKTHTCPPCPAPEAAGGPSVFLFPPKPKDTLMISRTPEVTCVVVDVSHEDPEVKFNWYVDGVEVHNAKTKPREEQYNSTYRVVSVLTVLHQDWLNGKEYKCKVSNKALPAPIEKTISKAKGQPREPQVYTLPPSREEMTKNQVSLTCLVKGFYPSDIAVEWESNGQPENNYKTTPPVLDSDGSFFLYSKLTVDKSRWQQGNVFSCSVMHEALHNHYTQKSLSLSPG
In the case of B3, the Kd came to 0.81 nM.

B4: A110 (antibody, human IgG1, kappa, L234A L235A)
light: DIVMTQTPLSLSVSLGDQASISCKSSQSIVHYNGNTYLEWYLQKPGQSPQLLIYKVSSRASGVPDRFSGSGSGTDFTLKISRVEAEDLGVYYCFQGSHFPLTFGQGTKLEIKRTVAAPSVFIFPPSDEQLKSGTASVVCLLNNFYPREAKVQWKVDNALQSGNSQESVTEQDSKDSTYSLSSTLTLSKADYEKHKVYACEVTHQGLSSPVTKSFNRGEC
heavy: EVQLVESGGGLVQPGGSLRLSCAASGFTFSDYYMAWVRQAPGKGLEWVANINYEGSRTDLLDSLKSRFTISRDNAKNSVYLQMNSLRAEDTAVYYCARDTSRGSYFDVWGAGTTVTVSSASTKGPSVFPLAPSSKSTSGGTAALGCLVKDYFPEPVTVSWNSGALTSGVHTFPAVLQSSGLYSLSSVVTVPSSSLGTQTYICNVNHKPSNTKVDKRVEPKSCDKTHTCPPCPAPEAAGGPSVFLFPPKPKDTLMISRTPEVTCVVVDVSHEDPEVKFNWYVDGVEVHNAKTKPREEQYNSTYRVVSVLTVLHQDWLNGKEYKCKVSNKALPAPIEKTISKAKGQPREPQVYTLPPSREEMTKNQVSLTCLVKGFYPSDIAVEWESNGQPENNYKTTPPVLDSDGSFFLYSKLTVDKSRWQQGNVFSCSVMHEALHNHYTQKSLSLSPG
For the molecule B4, the Kd came out at 0.45 nM.

B5: A115 (antibody, human IgG1, kappa, L234A L235A)
light: DIVMTQTPLSLSVSLGDQASISCKSSQSIVHYNEKTYLEWYLQKPGQSPQLLIYKVSSRASGVPDRFSGSGSGTDFTLKISRVEAEDLGVYYCFQGSHFPLTFGQGTKLEIKRTVAAPSVFIFPPSDEQLKSGTASVVCLLNNFYPREAKVQWKVDNALQSGNSQESVTEQDSKDSTYSLSSTLTLSKADYEKHKVYACEVTHQGLSSPVTKSFNRGEC
heavy: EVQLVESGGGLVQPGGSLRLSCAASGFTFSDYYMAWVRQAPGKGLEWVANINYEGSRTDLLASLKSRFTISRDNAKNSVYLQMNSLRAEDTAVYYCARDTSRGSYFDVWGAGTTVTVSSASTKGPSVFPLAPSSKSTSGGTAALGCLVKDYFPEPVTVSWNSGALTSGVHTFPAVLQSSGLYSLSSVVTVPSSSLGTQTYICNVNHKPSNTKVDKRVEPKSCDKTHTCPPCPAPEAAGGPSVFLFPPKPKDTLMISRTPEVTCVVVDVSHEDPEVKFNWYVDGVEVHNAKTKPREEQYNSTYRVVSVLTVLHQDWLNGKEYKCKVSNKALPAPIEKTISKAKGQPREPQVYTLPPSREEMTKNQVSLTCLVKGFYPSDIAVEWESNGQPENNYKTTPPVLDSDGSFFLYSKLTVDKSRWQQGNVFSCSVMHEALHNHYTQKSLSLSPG
In the case of B5, the affinity, expressed as Kd, was 0.66 nM.

B6: A114 (antibody, human IgG1, kappa, L234A L235A)
light: DIVMTQTPLSLSVSLGDQASISCKSSQSIVHYNEKTYLEWYLQKPGQSPQLLIYKVSSRASGVPDRFSGSGSGTDFTLKISRVEAEDLGVYYCFQGSHFPLTFGQGTKLEIKRTVAAPSVFIFPPSDEQLKSGTASVVCLLNNFYPREAKVQWKVDNALQSGNSQESVTEQDSKDSTYSLSSTLTLSKADYEKHKVYACEVTHQGLSSPVTKSFNRGEC
heavy: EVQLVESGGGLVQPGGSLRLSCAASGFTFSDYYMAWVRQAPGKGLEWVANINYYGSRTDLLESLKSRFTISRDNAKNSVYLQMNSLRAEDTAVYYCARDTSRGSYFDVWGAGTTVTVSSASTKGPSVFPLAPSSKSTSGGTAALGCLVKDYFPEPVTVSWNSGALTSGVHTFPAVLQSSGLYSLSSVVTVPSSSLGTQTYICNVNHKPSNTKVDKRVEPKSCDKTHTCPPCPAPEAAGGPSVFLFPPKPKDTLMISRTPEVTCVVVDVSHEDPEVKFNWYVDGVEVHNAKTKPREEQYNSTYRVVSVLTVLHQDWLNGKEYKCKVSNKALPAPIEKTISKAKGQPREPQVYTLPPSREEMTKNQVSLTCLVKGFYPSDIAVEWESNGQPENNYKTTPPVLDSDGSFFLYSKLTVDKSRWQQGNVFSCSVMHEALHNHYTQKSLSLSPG
B6 returned a Kd of 0.75 nM.

B7: A112 (antibody, human IgG1, kappa, L234A L235A)
light: DIVMTQTPLSLSVSLGDQASISCKSSQSIVHYNGNTYLEWYLQKPGQSPQLLIYKVSSRASGVPDRFSGSGSGTDFTLKISRVEAEDLGVYYCFQGSHFPLTFGQGTKLEIKRTVAAPSVFIFPPSDEQLKSGTASVVCLLNNFYPREAKVQWKVDNALQSGNSQESVTEQDSKDSTYSLSSTLTLSKADYEKHKVYACEVTHQGLSSPVTKSFNRGEC
heavy: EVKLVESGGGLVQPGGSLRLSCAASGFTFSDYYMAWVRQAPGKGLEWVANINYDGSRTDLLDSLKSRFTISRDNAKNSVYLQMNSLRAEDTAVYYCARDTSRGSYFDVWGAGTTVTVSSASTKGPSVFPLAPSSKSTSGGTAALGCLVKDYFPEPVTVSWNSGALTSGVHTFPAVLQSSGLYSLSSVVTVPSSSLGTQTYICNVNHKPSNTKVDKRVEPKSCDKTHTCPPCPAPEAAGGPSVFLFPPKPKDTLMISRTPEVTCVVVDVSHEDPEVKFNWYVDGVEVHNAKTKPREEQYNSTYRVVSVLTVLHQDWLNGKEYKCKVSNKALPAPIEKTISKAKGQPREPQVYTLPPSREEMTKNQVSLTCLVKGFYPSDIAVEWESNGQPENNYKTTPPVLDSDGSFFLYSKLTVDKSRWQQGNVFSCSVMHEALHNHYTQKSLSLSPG
Molecule B7 gave a dissociation constant (Kd) of 0.48 nM.

B8: A116 (antibody, human IgG1, kappa, L234A L235A)
light: DIVMTQTPLSLSVSLGDQASISCKSSQSIVHYNEKTYLEWYLQKPGQSPQLLIYKVSSRASGVPDRFSGSGSGTDFTLKISRVEAEDLGVYYCFQGSHFPLTFGQGTKLEIKRTVAAPSVFIFPPSDEQLKSGTASVVCLLNNFYPREAKVQWKVDNALQSGNSQESVTEQDSKDSTYSLSSTLTLSKADYEKHKVYACEVTHQGLSSPVTKSFNRGEC
heavy: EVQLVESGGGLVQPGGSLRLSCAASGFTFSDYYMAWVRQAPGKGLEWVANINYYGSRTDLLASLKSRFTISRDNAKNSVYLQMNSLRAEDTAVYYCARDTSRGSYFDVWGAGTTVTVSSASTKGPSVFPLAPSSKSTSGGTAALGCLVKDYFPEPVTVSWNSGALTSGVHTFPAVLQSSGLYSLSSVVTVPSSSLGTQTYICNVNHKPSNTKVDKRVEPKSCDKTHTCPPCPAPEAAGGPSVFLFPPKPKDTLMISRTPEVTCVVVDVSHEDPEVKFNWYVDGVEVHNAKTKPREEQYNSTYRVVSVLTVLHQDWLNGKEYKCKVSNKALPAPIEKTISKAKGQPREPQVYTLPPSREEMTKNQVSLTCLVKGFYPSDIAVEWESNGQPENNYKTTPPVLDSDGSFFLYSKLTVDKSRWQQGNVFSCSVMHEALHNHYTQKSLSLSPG
B8 displayed a Kd of 0.69 nM.

B9: A109 (antibody, human IgG1, kappa, L234A L235A)
light: DIVMTQTPLSLSVSLGDQASISCKSSQSIVHYNGNTYLEWYLQKPGQSPQLLIYKVSSRASGVPDRFSGSGSGTDFTLKISRVEAEDLGVYYCFQGSHFPLTFGQGTKLEIKRTVAAPSVFIFPPSDEQLKSGTASVVCLLNNFYPREAKVQWKVDNALQSGNSQESVTEQDSKDSTYSLSSTLTLSKADYEKHKVYACEVTHQGLSSPVTKSFNRGEC
heavy: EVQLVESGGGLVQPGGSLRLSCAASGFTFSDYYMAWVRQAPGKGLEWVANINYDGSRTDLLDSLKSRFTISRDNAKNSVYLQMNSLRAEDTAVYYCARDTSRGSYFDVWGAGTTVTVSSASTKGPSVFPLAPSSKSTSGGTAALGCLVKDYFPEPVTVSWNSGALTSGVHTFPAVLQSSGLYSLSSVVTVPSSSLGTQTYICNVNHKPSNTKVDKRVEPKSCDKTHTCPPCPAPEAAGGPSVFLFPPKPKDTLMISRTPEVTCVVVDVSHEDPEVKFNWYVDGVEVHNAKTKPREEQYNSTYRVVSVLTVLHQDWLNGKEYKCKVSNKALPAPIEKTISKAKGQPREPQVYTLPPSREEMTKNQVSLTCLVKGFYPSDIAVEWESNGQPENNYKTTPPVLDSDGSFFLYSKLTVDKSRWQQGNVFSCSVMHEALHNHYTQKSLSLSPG
Take B9: the Kd stood at 0.44 nM.

B10: A120 (antibody, human IgG1, kappa, L234A L235A)
light: DIVMTQTPLSLSVSLGDQASISCKSSQSIVHYNEKTYLEWYLQKPGQSPQLLIYKVSSRASGVPDRFSGSGSGTDFTLKISRVEAEDLGVYYCFQGSHFPLTFGQGTKLEIKRTVAAPSVFIFPPSDEQLKSGTASVVCLLNNFYPREAKVQWKVDNALQSGNSQESVTEQDSKDSTYSLSSTLTLSKADYEKHKVYACEVTHQGLSSPVTKSFNRGEC
heavy: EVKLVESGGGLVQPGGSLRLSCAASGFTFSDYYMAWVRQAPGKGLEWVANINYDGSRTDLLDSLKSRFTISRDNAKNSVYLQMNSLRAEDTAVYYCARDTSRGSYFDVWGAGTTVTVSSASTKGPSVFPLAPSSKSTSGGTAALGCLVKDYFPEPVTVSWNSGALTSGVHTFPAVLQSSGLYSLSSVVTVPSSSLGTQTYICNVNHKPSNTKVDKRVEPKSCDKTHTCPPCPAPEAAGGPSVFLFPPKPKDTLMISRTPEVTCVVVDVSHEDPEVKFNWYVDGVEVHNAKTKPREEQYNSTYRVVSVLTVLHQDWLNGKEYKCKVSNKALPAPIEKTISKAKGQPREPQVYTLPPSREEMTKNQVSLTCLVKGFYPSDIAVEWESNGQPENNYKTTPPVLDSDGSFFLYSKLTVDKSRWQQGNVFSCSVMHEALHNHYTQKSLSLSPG
With B10, the Kd was found to be 0.84 nM.

B11: A113 (antibody, human IgG1, kappa, L234A L235A)
light: DIVMTQTPLSLSVSLGDQASISCKSSQSIVHYNEKTYLEWYLQKPGQSPQLLIYKVSSRASGVPDRFSGSGSGTDFTLKISRVEAEDLGVYYCFQGSHFPLTFGQGTKLEIKRTVAAPSVFIFPPSDEQLKSGTASVVCLLNNFYPREAKVQWKVDNALQSGNSQESVTEQDSKDSTYSLSSTLTLSKADYEKHKVYACEVTHQGLSSPVTKSFNRGEC
heavy: not shown
B11 registered a Kd of 0.76 nM.

B12: A119 (antibody, human IgG1, kappa, L234A L235A)
light: DIVMTQTPLSLSVSLGDQASISCKSSQSIVHYNEKTYLEWYLQKPGQSPQLLIYKVSSRASGVPDRFSGSGSGTDFTLKISRVEAEDLGVYYCFQGSHFPLTFGQGTKLEIKRTVAAPSVFIFPPSDEQLKSGTASVVCLLNNFYPREAKVQWKVDNALQSGNSQESVTEQDSKDSTYSLSSTLTLSKADYEKHKVYACEVTHQGLSSPVTKSFNRGEC
heavy: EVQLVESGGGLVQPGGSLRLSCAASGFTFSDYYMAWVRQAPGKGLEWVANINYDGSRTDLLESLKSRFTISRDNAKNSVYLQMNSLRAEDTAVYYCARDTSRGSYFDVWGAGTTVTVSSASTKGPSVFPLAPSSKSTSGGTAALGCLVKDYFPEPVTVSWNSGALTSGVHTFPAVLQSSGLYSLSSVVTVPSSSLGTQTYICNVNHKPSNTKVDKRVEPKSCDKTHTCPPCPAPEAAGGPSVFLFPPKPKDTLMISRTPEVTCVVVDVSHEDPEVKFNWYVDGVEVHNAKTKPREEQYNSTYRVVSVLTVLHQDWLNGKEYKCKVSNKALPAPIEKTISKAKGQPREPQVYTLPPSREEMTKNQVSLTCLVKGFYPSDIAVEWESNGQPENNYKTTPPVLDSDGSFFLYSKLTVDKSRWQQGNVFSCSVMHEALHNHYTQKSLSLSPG
In the case of B12, the affinity, expressed as Kd, was 0.91 nM.

B13: A111 (antibody, human IgG1, kappa, L234A L235A)
light: DIVMTQTPLSLSVSLGDQASISCKSSQSIVHYNGNTYLEWYLQKPGQSPQLLIYKVSSRASGVPDRFSGSGSGTDFTLKISRVEAEDLGVYYCFQGSHFPLTFGQGTKLEIKRTVAAPSVFIFPPSDEQLKSGTASVVCLLNNFYPREAKVQWKVDNALQSGNSQESVTEQDSKDSTYSLSSTLTLSKADYEKHKVYACEVTHQGLSSPVTKSFNRGEC
heavy: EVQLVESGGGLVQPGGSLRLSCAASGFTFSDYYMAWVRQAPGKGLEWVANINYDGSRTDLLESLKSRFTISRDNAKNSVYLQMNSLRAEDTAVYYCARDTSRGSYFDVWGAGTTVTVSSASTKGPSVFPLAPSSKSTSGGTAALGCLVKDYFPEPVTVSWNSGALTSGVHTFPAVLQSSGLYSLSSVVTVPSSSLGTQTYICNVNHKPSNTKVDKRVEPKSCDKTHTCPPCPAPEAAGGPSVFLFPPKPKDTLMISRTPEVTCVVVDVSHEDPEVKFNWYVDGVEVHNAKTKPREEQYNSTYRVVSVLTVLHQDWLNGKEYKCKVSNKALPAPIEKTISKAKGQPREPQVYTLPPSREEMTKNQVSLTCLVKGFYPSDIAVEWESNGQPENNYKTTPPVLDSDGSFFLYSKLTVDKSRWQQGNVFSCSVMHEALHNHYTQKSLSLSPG
In the case of B13, the Kd came out at 0.51 nM.

B14: A117 (antibody, human IgG1, kappa, L234A L235A)
light: DIVMTQTPLSLSVSLGDQASISCKSSQSIVHYNEKTYLEWYLQKPGQSPQLLIYKVSSRASGVPDRFSGSGSGTDFTLKISRVEAEDLGVYYCFQGSHFPLTFGQGTKLEIKRTVAAPSVFIFPPSDEQLKSGTASVVCLLNNFYPREAKVQWKVDNALQSGNSQESVTEQDSKDSTYSLSSTLTLSKADYEKHKVYACEVTHQGLSSPVTKSFNRGEC
heavy: not shown
As for B14, the Kd was 0.81 nM.
